According to patent US20050164308A1, “Beta-lactamase CD4+ T-cell epitopes” (priority 2003, published 2005):

B1: pCD1.1: epitope-modified beta-lactamase K21A/S324A (protein)
chain: TPVSEKQLAEVVANTITPLMAAQSVPGMAVAVIYQGKPHYYTFGKADIAANKPVTPQTLFELGSISKTFTGVLGGDAIARGEISLDDAVTRYWPQLTGKQWQGIRMLDLATYTAGGLPLQVPDEVTDNASLLRFYQNWQPQWKPGTTRLYANASIGLFGALAVKPSGMPYEQAMTTRVLKPLKLDHTWINVPKAEEAHYAWGYRDGKAVRVSPGMLDAQAYGVKTNVQDMANWVMANMAPENVADASLKQGIALAQSRYWRIGSMYQGLGWEMLNWPVEANTVVEGSDSKVALAPLPVAEVNPPAPPVKASWVHKTGSTGGFGAYVAFIPEKQIGIVMLANTSYPNPARVEAAYHILEALQ
B2: BLA: beta-lactamase precursor (cephalosporinase) from Enterobacter cloacae, GenBank Accession No. P05364, SEQ ID NO:1 (protein, listed as Enterobacter cloacae)
chain: TPVSEKQLAEVVANTITPLMKAQSVPGMAVAVIYQGKPHYYTFGKADIAANKPVTPQTLFELGSISKTFTGVLGGDAIARGEISLDDAVTRYWPQLTGKQWQGIRMLDLATYTAGGLPLQVPDEVTDNASLLRFYQNWQPQWKPGTTRLYANASIGLFGALAVKPSGMPYEQAMTTRVLKPLKLDHTWINVPKAEEAHYAWGYRDGKAVRVSPGMLDAQAYGVKTNVQDMANWVMANMAPENVADASLKQGIALAQSRYWRIGSMYQGLGWEMLNWPVEANTVVEGSDSKVALAPLPVAEVNPPAPPVKASWVHKTGSTGGFGSYVAFIPEKQIGIVMLANTSYPNPARVEAAYHILEALQ

Tests used:
PBMCs = assay: PBMC proliferation assay; format: cell-based, human; conditions: 26 donors
Method: The blood samples used in these experiments were the same as described above (i.e., before Example 1). The PBMCs were separated using Lymphoprep, as known in the art. The PBMCs were washed in PBS and counted using a Cell Dyn® 3700 blood analyzer (Abbott). The cell numbers and differentials were recorded. The PBMCs were resuspended to 4×10^6 cells/ml, in a solution of heat-inactivated human AB serum, RPMI 1640, pen/strep, glutamine, and 2-ME. Then, 2 mls per well were plated into 24-well plates. Two wells were used as no-enzyme controls. Then, the unmodified beta-lactamase and modified beta-lactamases were added to the wells at a concentrations of 10 ug/ml, 20 ug/ml, and 40 ug/ml. The epitope-modified beta-lactamases tested were K21A/S324A (designated as “pCD1.1”) and K21A/S324A/L149S (designated as “pCD08.3”). The K21A mutation corresponds to SEQ ID NO:10, while the S324A mutation corresponds to SEQ ID NO:48, and the L149S mutation corresponds to SEQ ID NO:84. The S324 variant is in epitope #107, while K21A is in epitope #6, and L149S is in epitope #49. […] These plates were incubated for 6 hours, the cells harvested and counted. […] SI values were calculated by dividing the average for each set of eight wells for each sample by the average CPM for the control well. The data were analyzed by creating a dataset representing the highest SI value achieved for each donor and each enzyme. […]

mouse splenocytes [1] = assay: Proliferative response of splenocytes from immunized mice to BLA peptides; format: in vivo, CB6F1 mice; conditions: mice immunized i.p. 20 μg in alum, days 1, 7, 15; tested day 19
Method: (§1) In this Example, experiments conducted to test the reduced immunogenicity of pCD1.1 in vivo are described. In these experiments, CB6F1 mice were immunized intraperitoneally with 20 μg of either wild-type BLA, or the CD1.1 protein in alum per mouse, as known in the art. Mice were immunized on days 1, 7, and 15 (i.e., d=1, d=7 and d=15). Splenocytes were tested for reactivity with BLA peptides on day 19. […] This response correlates with one of the human defined epitopes.

mouse splenocytes [2] = assay: Proliferative response of splenocytes from immunized mice to whole protein BLA or CD1.1; format: in vivo, CB6F1 mice; conditions: mice immunized with the labelled protein; restimulated with BLA or CD1.1
Method: as §1
Splenocytes from immunized mice were tested in vitro for their proliferative response to whole protein BLA or CD1.1. […] However, it is not intended that the present invention be limited to any particular mechanism.

[3] = test system: BLA-specific IgG1 antibody; assay: Antigen-specific ELISA on serum of thrice-immunized mice; format: in vivo, CB6F1 mice; conditions: BLA or CD1.1 as plate coating
Method: as §1
In addition, serum samples were taken from the thrice-immunized mice and an antigen-specific ELISA was performed (FIG. 16). Mice immunized with BLA produced robust levels of anti-BLA IgG1 antibody. […] ELISA assays were performed using both BLA and CD1.1 as the plate-coating reagent, with identical results.

| Molecule | average proliferative response (SI) compared to wild-type beta-lactamase (PBMCs; 10, 20, 40 ug/ml, highest SI per donor) | percent of responders compared to wild-type beta-lactamase (PBMCs; responder if highest SI > 1.99) | splenocyte proliferative response to the peptide 107 region (mouse splenocytes [1]) | splenocyte proliferative response to the peptide 114 region (mouse splenocytes [1]) | in vitro proliferative response of immunized mouse splenocytes to whole protein (mouse splenocytes [2]) | anti-BLA IgG1 antibody level [3] |
| --- | --- | --- | --- | --- | --- | --- |
| B1 | less proliferation | fewer donors | no longer responded | no longer responded | unable to respond significantly | did not produce significant levels |
| B2 |  |  | respond strongly | Responses were also noted | increased | robust levels |
